In paper PMC10998907 (Nature Communications, 2024):

Target: NiV-RBP ectodomain homotetramer (Nipah virus, Malaysia (deposit 8K3C …, UniProt Q9IH62))
Assay: cryo-EM structure
Details: both partners purified

Chain of NiV-RBP ectodomain homotetramer (Nipah virus, Malaysia (Q9IH62 whole entry, looked up, the tested form may be a part): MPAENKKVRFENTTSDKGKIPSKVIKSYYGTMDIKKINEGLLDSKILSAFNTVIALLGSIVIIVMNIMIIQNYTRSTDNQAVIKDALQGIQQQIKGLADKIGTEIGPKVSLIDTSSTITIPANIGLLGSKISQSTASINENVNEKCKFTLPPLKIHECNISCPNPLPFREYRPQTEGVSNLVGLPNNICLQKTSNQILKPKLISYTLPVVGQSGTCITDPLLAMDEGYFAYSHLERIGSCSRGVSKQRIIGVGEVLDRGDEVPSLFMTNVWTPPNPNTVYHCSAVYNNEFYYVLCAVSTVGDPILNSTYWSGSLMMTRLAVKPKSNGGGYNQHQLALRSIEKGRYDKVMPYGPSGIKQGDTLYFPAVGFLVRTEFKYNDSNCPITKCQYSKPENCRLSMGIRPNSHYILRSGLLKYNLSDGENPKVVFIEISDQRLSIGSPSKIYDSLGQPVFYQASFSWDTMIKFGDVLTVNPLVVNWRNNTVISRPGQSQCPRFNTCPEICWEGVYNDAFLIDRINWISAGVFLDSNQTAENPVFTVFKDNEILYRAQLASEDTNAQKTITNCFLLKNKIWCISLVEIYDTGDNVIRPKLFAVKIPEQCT

B1: 41-6 Fab fragment (Fab, V domains shown)
VH: EVQLVQSGGGLVQPGGSLRLSCAASGFTVSSNYMSWVRQAPGKGLEWVSAISGSGGSTYYADSVKGRFTISRDNSKNTLYLQMNSLRAEDTAVYYCARDREDIVVVPAPRGYYYYYYMDVWGQGTTVTVSS
VL: QSVVTQPPSVSAAPGQKVTISCSGSSSNIGTNHLSWYQQVPGTAPKLLIYDNNKRPSGIPDRFSGSKSGTSASLAISGLQSEDEADYYCATWDDSLHAWVFGGGTKLTVL
stoichiometry N: 3
